Earlier results in publication PMC3040723.

Target: IscU (Escherichia coli) (UniProt P0ACD4)
Sequence (P0ACD4 whole entry): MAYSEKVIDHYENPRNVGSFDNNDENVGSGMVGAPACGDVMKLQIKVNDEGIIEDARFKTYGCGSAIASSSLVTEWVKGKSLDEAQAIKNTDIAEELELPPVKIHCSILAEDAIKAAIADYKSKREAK

HscB, sequence (P0A6L9 whole entry): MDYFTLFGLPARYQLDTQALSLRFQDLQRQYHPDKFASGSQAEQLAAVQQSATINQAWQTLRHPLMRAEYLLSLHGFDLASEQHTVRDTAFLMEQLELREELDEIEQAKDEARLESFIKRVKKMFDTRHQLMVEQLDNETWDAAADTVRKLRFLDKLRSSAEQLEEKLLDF

HscB (from UniProt P0A6L9)
Kd: 13 µM
